Measurements reported in patent US11078465B2, “Alcohol dehydrogenase mutant and application thereof in synthesis of diaryl chiral alcohols” (Jiangnan University, priority 2018, dated 2021).
Where a chain is given by its changes, count along the chain named. Names may count otherwise. “And” between values parts separate entries of the source, which are not always exact repeats. Equal values may be shown once. “Also recorded” adds a separate entry of the source.

Legend:
Type in all cases: biochemical
[1] = Stereoselectivity on different substrates; conditions: configuration in brackets
Description: (§1) In an embodiment of the present disclosure, a chromatographic analysis method is as follows: 100 μL of reactant liquid is taken, 500 μL of ethyl acetate is added, shaking is performed for 1-2 min, centrifugation is performed at 12,000 rpm for 2-5 min, supernatant liquid is taken into a centrifuge tube, after an organic phase naturally volatilizes completely, 500 μL of chromatographically pure ethanol is added, and chiral liquid chromatography and gas chromatography are performed to analyze the transformation rate and the ee value.
(§2) Method for determining optical purity ee:
(§3) As: molar concentration of (S)-CPMA obtained by liquid chromatography; and AR: molar concentration of (R)-CPMA obtained by liquid chromatography.
(§4) The reduction on prochiral carbonyl compounds by the alcohol dehydrogenase mutants obtained in Example 3 was studied. The pro-chiral carbonyl compounds include (4-chlorophenyl)-(pyridin-2-yl)-methanone (CPMK), phenyl-(pyridin-2-yl)-methanone, (4-chlorophenyl)-(phenyl)-methanone, (4-bromophenyl)(phenyl)methanone, (4-fluorophenyl)(phenyl)methanone, (4-methoxyphenyl)-(phenyl)-methanone, (4-nitrophenyl)(phenyl)methanone, 1-(pyridin-2-yl)ethanone, acetophenone, 4′-Chloroacetophenone, 4-chlorophenacyl chloride, ethyl 2-oxo-4-phenylbutanoate (OPBE), ethyl 4-chloro-3-oxobutanoate, and methyl 2-oxo-2-phenylacetate.

[2] = Kinetic analysis of alcohol dehydrogenase and mutants (NADPH oxidation, 340 nm, double reciprocal curve); conditions: substrate CPMK
Description: (§5) Adopting a total reaction system of 200 μL, including: 1.0 mM NADPH, 1.0 mM substrate CPMK and sodium phosphate buffer (PBS, 100 mM, pH 7.0), fully and evenly mixing, maintaining at 30° C. for 2 min, adding an appropriate amount of enzyme solution, and detecting the change in light absorption at 340 nm.
(§6) The enzyme activity was calculated by the following formula: Enzyme activity (U)=EW×V×10^3/(6220×I);
(§7) in the formula, EW is the change in absorbance at 340 nm in 1 min; V is the volume of a reaction solution in mL; 6220 is the molar extinction coefficient of NADPH in L/mol·cm); and 1 is the optical path distance in cm. One activity unit (U) corresponds to the amount of enzyme required to catalyze the oxidation of 1 μmol NADPH per minute under the above conditions.
A column used for purification was a nickel affinity column HisTrap FF crude, and purification was achieved through affinity chromatography using a histidine tag on recombinant protein. The nickel column was equilibrated with a solution A first, a crude enzyme solution was loaded, a penetrating peak was further eluted off using the solution A, and after equilibrium, a solution B (20 mM sodium phosphate, 500 mM NaCl, and 1000 mM imidazole, pH 7.4) was used for gradient elution to elute off the recombinant protein bound to the nickel column, so as to obtain the recombinant alcohol dehydrogenase mutant. The purified protein was subjected to activity measurement (CPMK as substrate, and NADPH as coenzyme) and SDS-PAGE analysis. […] The purified alcohol dehydrogenase protein was then replaced into a Tris-HCl (100 mM, pH 7.0) buffer using a Hi Trap Desalting column (GE Healthcare).
The activity of KpADH at different substrate concentrations and coenzyme concentrations was determined, and a double reciprocal curve was made based on the reciprocal of activity and substrate concentration to calculate kinetic parameters.

[3] = Stereoselectivity on different substrates; conditions: configuration in brackets; remark: listed apart in the source
Description: as §1, §2, §3, §4
All the products above were recrystallized from ethyl acetate and gave more than 99.9% optical purity.

[4] = Stereoselectivity (ee) of CPMK reduction, chiral liquid chromatography
Description: as §1, §2, §3

[5] = Substrate specificity, specific activity
Description: as §5, §6, §7, §4

[6] = Asymmetric reduction in 20 mL biocatalytic system, conversion
Description: as §1
The pure (R)-CPMA were recrystallized from ethyl acetate at 4° C. and gave 99.9% optical purity. […] Besides, the conversion cannot reach 100% with 24 h in the asymmetric reduction of (4-bromophenyl)-(phenyl)-methanone and p-nitrobenzophenone due to the low enzyme activity.

[7] = substrate [drawing 14], likely CPMK (values partly match Table 4)
[8] = substrate [drawing 10], acetophenone
[9] = substrate [drawing 11], 4-chloroacetophenone
[10] = substrate [drawing 12], 4-chlorobenzoyl chloride
[11] = substrate [drawing 16], (4-bromophenyl)-(phenyl)-methanone
[12] = substrate [drawing 17], p-nitrobenzophenone
[13] = product configuration in brackets
[14] = substrate [drawing 6], 4-chlorophenacyl chloride
[15] = substrate [drawing 9], ethyl 4-chloro-3-oxobutanoate

B1: E214Q/S237C: glutamine for glutamate at position 214 and cysteine for serine at position 237 of SEQ ID No. 2 (protein)
chain: MSVLISGASGYIAKHIVRVLLEQNYKVIGTVRSQDKADKLLKQYNNPNLSYEIVPEIANLDAFDDIFKKHGKEIKYVIHAASPVNFGAKDLEKDLVIPAINGTKNMFEAIKKYAPDTVERVVMTASYASIMTPHRQNDPTLTLDEETWNPVTEENAYENVFTAYCASKTFAEKEAWKFVKENSDAVKFKLTTIHPSFVFGPQNFDEDVTKKLNQTCEIINGLLHAPFDTKVEKTHFCQFIDVRDVAKTHVLGFQKDELINQRLLLCNGAFSQQDIVNVFNEDFPELKGQFPPEDKDTDLNKGVTGCKIDNEKTKKLLAFEFTPFHKTIHDTVYQILHKEGRV
modifications: Protein translated from synthetic DNA
Question: Which “Stereoselectivity (ee)” value ([1]; substrate [drawing 13]) does the source give for B1 here?
Answer: 56.6 (R)

Question: And the “Stereoselectivity (ee)” value [1, 7]?
Answer: 44.6 (S)

Question: And the “Stereoselectivity (ee)” value ([1]; substrate [drawing 15])?
Answer: 88.6 (R)

Question: What about the “Stereoselectivity (ee)” value ([1]; substrate [drawing 18]) of the same molecule?
Answer: 90.6 (R)

Question: What about the Kcat [2] of the same molecule?
Answer: 7.06 ± 0.63 s⁻¹

Question: What about the Km [2] of the same molecule?
Answer: 550 ± 20 µM

Question: And the Vmax [2]?
Answer: 10.59 ± 0.16 µM/min/mg

Question: And the “Stereoselectivity (ee)” value [3, 8]?
Answer: 96.5 (R)

Question: What about the “Stereoselectivity (ee)” value [3, 9] of the same molecule?
Answer: 93.5 (R)

Question: What about the “Stereoselectivity (ee)” value [3, 10] of the same molecule?
Answer: 97.6 (R)

Question: And the “Stereoselectivity (ee)” value [3, 11]?
Answer: 92.6 (R)

Question: And the “Stereoselectivity (ee)” value [3, 12]?
Answer: 93.3 (R)

Question: What about the “configuration of product / stereoselectivity in words” value [4] of the same molecule?
Answer: inversion from the R configuration to the S configuration; also recorded: (S)-CPMA

Question: What about the e.e. [4, 13] of the same molecule?
Answer: 44.6 (S)

Question: What about the specific activity ([5]; substrate [drawing 1]) of the same molecule?
Answer: 0.22 U/mg

Question: And the specific activity ([5]; substrate [drawing 2])?
Answer: 0.12 U/mg

Question: What about the specific activity ([5]; substrate [drawing 3]) of the same molecule?
Answer: 0.09 U/mg

Question: What about the specific activity ([5]; substrate [drawing 4]) of the same molecule?
Answer: 5.65 U/mg

Question: And the specific activity ([5]; substrate [drawing 5])?
Answer: 3.65 U/mg

Question: What about the specific activity [5, 14] of the same molecule?
Answer: 10.25 U/mg

Question: And the specific activity ([5]; substrate [drawing 7])?
Answer: 9.89 U/mg

Question: And the specific activity ([5]; substrate [drawing 8])?
Answer: 22.65 U/mg

Question: What about the specific activity [5, 15] of the same molecule?
Answer: 2.65 U/mg

B2: WT: wild type alcohol dehydrogenase KpADH, amino acid sequence SEQ ID No. 2 (protein)
chain: B1 chain with Q214E, C237S
modifications: Protein translated from synthetic DNA
Question: Which “Stereoselectivity (ee)” value ([1]; substrate [drawing 13]) does the source give for B2 here?
Answer: 27.5 (R)

Question: And the “Stereoselectivity (ee)” value [1, 7]?
Answer: 83.7 (R)

Question: And the “Stereoselectivity (ee)” value ([1]; substrate [drawing 15])?
Answer: 52.4 (S)

Question: And the “Stereoselectivity (ee)” value ([1]; substrate [drawing 18])?
Answer: 27.3 (R)

Question: And the “Stereoselectivity (ee)” value [3, 8]?
Answer: 88.6 (R)

Question: And the “Stereoselectivity (ee)” value [3, 9]?
Answer: 92.9 (R)

Question: And the “Stereoselectivity (ee)” value [3, 10]?
Answer: 95.2 (R)

Question: What about the “Stereoselectivity (ee)” value [3, 11] of the same molecule?
Answer: 70.5 (S)

Question: What about the “Stereoselectivity (ee)” value [3, 12] of the same molecule?
Answer: 37.6 (R)

Question: What about the “ee value, (R)-CPMA” value ([4]; R configuration product) of the same molecule?
Answer: 82% and 81.7%

Question: And the e.e. [4, 13]?
Answer: 81.7 (R)

Question: What about the ee % [4, 13] of the same molecule?
Answer: 81.7 (R) %

Question: What about the specific activity ([5]; substrate [drawing 1]) of the same molecule?
Answer: 0.99 U/mg

Question: What about the specific activity ([5]; substrate [drawing 2]) of the same molecule?
Answer: 1.34 U/mg

Question: And the specific activity ([5]; substrate [drawing 3])?
Answer: 4.15 U/mg

Question: What about the specific activity ([5]; substrate [drawing 4]) of the same molecule?
Answer: 4.07 U/mg

Question: What about the specific activity ([5]; substrate [drawing 5]) of the same molecule?
Answer: 12.09 U/mg

Question: What about the specific activity [5, 14] of the same molecule?
Answer: 20.67 U/mg

Question: And the specific activity ([5]; substrate [drawing 7])?
Answer: 27.02 U/mg

Question: What about the specific activity ([5]; substrate [drawing 8]) of the same molecule?
Answer: 39.77 U/mg

Question: And the specific activity [5, 15]?
Answer: 41.84 U/mg

Question: What about the “ee in asymmetric synthesis of (R)-CPMA” value ([6]; 20 mL biocatalytic system, 30° C., pH 7.5) of the same molecule?
Answer: 82%

Question: And the Conversion rate ([6]; CPMK 100 mM, 1 h)?
Answer: 50.5%

Question: And the Conversion rate ([6]; CPMK 100 mM, 2 h)?
Answer: 65.5%

Question: What about the Conversion rate ([6]; CPMK 100 mM, 3 h) of the same molecule?
Answer: 79.5%

Question: What about the Conversion rate ([6]; CPMK 100 mM, 4 h) of the same molecule?
Answer: 88.8%

Question: And the Conversion rate ([6]; CPMK 100 mM, 6 h)?
Answer: 98.5%

Question: What about the Conversion rate ([6]; CPMK 100 mM, 8 h) of the same molecule?
Answer: >99.9%

Question: What about the Conversion rate ([6]; CPMK 100 mM, 12 h) of the same molecule?
Answer: >99.9%

Question: And the Conversion rate ([6]; CPMK 100 mM, 24 h)?
Answer: >99.9%

Question: And the Conversion rate ([6]; CPMK 200 mM, 1 h)?
Answer: 35.6%

Question: And the Conversion rate ([6]; CPMK 200 mM, 2 h)?
Answer: 46.9%

Question: And the Conversion rate ([6]; CPMK 200 mM, 3 h)?
Answer: 62.0%

Question: What about the Conversion rate ([6]; CPMK 200 mM, 4 h) of the same molecule?
Answer: 75.5%

Question: And the Conversion rate ([6]; CPMK 200 mM, 6 h)?
Answer: 95.6%

Question: What about the Conversion rate ([6]; CPMK 200 mM, 8 h) of the same molecule?
Answer: 98.8%

Question: And the Conversion rate ([6]; CPMK 200 mM, 12 h)?
Answer: 99.4%

Question: What about the Conversion rate ([6]; CPMK 200 mM, 24 h) of the same molecule?
Answer: 99.7%

Question: And the Conversion rate ([6]; CPMK 500 mM, 1 h)?
Answer: 22.5%

Question: What about the Conversion rate ([6]; CPMK 500 mM, 2 h) of the same molecule?
Answer: 30%

Question: And the Conversion rate ([6]; CPMK 500 mM, 3 h)?
Answer: 55.6%

Question: What about the Conversion rate ([6]; CPMK 500 mM, 4 h) of the same molecule?
Answer: 66.5%

Question: And the Conversion rate ([6]; CPMK 500 mM, 6 h)?
Answer: 80.2%

Question: And the Conversion rate ([6]; CPMK 500 mM, 8 h)?
Answer: 93.2%

Question: And the Conversion rate ([6]; CPMK 500 mM, 12 h)?
Answer: 95.6%

Question: And the Conversion rate ([6]; CPMK 500 mM, 24 h)?
Answer: 99.2%
